# Test results taken from the supplement of paper PMC11780869.
# Tested on: Bacillus subtilis
# Experiment: cleaved RNA product abundance (RNA/gDNA barcode ratio) relative to median wild-type variant (ratio to wild type); higher = more accumulation of the downstream cleavage product
# Method in brief: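 Oligos with a 9% error rate were used to build barcoded, mutagenized RNase Y cleavage-site windows within truncated aprE or tetM reporter mRNAs, which were integrated into the B. subtilis chromosome. Cultures were grown in LB at 37°C between OD600 0.0003 and 0.3. Cleaved RNA was gel-selected, reverse transcribed and barcode-sequenced, as were genomic DNA barcodes, and UMIs were collapsed. Cleaved product abundance is the scaled RNA:gDNA barcode ratio, with the median construct carrying the unmutated site as reference.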
# [1] = experiment (reporter, strain, medium): exp 2b: truncated aprE reporter, strain BJT200, cleavage site: cggR-gapA (positions -7 to +36 mutated)
# [2] = experiment (reporter, strain, medium): exp 4a: truncated aprE reporter, strain BJT201 with 2% xylose (RNase J1 expressed), cleavage site: cggR-gapA (positions -7 to +36 mutated)
# [3] = experiment (reporter, strain, medium): exp 8a: truncated aprE reporter, strain BJT201 with 2% xylose (RNase J1 expressed), cleavage site: glnRA (positions -5 to +31 mutated)
# [4] = experiment (reporter, strain, medium): exp 6: tetM reporter, strain 168, cleavage site: cggR-gapA (positions -7 to +36 mutated)
Sequence,cleaved RNA product abundance [2],other results
ACAGACGAAGGAGCCGCAAAGAAGTTATTAAGCGATGAATAATCCCTCAATAGAAATATCTCTCACTTATTTAAA,0.0613,cleaved RNA product abundance [1]: 0.0778
ACAGACGAAGGAGCCGCAAAGAAGTTATTAAGGGTTAAATAATCCCTCAATATAAATATCTCTCACTTATTTAAA,0.753,
ACAGACGAAGGAGCCGCAAAGAAGTTATGAAGGGATAAATAATCCCTCAATATAAATATCTCTCACTTATTTAAA,0.542,cleaved RNA product abundance [1]: 0.349
CGACATGTCCCGCTTCTTTCATTAGTCCGTTACCAACTGTTTTGCTATATACATTTACCTTTTAAGAGGAGGAAT,,cleaved RNA product abundance [3]: 0.248
CGACATGTCCCGCTTCTTTCATTAATCTGTTATCAATTGTTTTGCTATATACATTTACCTTTTAAGAGGAGGAAT,,cleaved RNA product abundance [3]: 0.383
ACAGACGAAGGAGCCGCAAAGAAGTTATTAAGGGATAAATAATCCCTCAATATAGATATCTCTCACTTATTTAAA,1.02,cleaved RNA product abundance [1]: 0.638
ACAGACGAAGGAGCCGCAAAGAAGTTAATAAGGGATGAATAATCCCTCAATATAAACATCTCTCACTTATTTAAA,0.338,
ACAGACGAAGGAGCCGCAAAGAAGTTATTAAGGGATGATTAATCCCTCAATATAAATATCTCTCACTTATTTAAA,0.844,cleaved RNA product abundance [1]: 0.75; cleaved RNA product abundance [4]: 0.94
CGACATGTCCCGCTTCTTTCATTAATCCATTAGCAACTGTTTTACTATATACATTTACCTTTTAAGAGGAGGAAT,,cleaved RNA product abundance [3]: 0.48
ACAGACGAAGGAGCCGCAAAGAAGTTATTAAGGGATGAATAACTCCTCAATATAAATATCTCTCACTTATTTAAA,0.149,cleaved RNA product abundance [1]: 0.14
ACAGACGAAGGAGCCGCAAAGAAGTTATTAAGGGATGAATAATCCTTCAATATATATATCTCTCACTTATTTAAA,0.604,
ACAGACGAAGGAGCCGCAAAGAAGTAATTAAGGGATAAATAATCCCTCAATATAAATATCTCTCACTTATTTAAA,0.219,cleaved RNA product abundance [1]: 0.256
ACAGACGAAGGAGCCGCAAAGAAGTTATTAAGGGATGAATAACCACTCAATATAAATATCTCTCACTTATTTAAA,0.17,cleaved RNA product abundance [1]: 0.0866
ACAGACGAAGGAGCCGCAAAGTAGTTATTAAAGGATGAATAATCCCTCAATATAAATATCTCTCACTTATTTAAA,0.208,
ACAGACGAAGGAGCCGCAAAGAAGTTATTAAGGGATGAATAATCCCTCAGAATAAATATCTCTCACTTATTTAAA,0.197,
ACAGACGAAGGAGCCGCAAAGAAGTTATTAAGGGAAAAATAATCCCTCAATATAAATATCTCTCACTTATTTAAA,0.771,
ACAGACGAAGGAGCCGCAAAGAAGTTATTAAGGGACGAATAATTCCTCAATATAAATATCTCTCACTTATTTAAA,0.192,cleaved RNA product abundance [1]: 0.126
CGACATGTCCCGCTTCTTTCATTAATCCGTTAATAACTGTTTTGCTATATACATTTAACTTTTAAGAGGAGGAAT,,cleaved RNA product abundance [3]: 0.205
ACAGACGAAGGAGCCGCAAAGAAGTTATTAAGGGATGAATAATTTCTCAATATAAATATCTCTCACTTATTTAAA,0.16,
ACAGACGAAGGAGCCGCAAAGAAGTTATTAAAGCATGAATAATCCCTCAATATAAATATCTCTCACTTATTTAAA,0.11,cleaved RNA product abundance [1]: 0.119

Sequence,cleaved RNA product abundance [2],other results
ACAGACGAAGGAGCCGCAAATAAATTATTAAGGGATGAATATTCCCTCAATATAAATATCTCTCACTTATTTAAA,0.421,
ACAGACGAAGGAGCCGCAAAAAAGTTATTAAGGGATGAATAATCCCTCCATATAAATATCTCTCACTTATTTAAA,0.348,
CGACATGTCCCGCTTCTTTCATTAATCCGTTAGCAACTGTATTGCTATATTCATTTACCTTTTAAGAGGAGGAAT,,cleaved RNA product abundance [3]: 0.16
CGACATGTCCCGCTTCTTTCATTAATCCGTAATCAACTGTTTTGCTATATACATTTACCTTTTAAGAGGAGGAAT,,cleaved RNA product abundance [3]: 0.265
ACAGACGAAGGAGCCGCAAAGAAGTTACTAAGGGATGAATAATTCCTCAATATAAATATCTCTCACTTATTTAAA,0.24,
CGACATGTCCCGCTTCTTTCATTATTCCGTTATCAACTGTTTTGATATATACATTTACCTTTTAAGAGGAGGAAT,,cleaved RNA product abundance [3]: 0.385
CGACATGTCCCGCTTCTTTCATTAATCCGTTAGCAACTGTTTAGCTATATACATTTAGCTTTTAAGAGGAGGAAT,,cleaved RNA product abundance [3]: 0.608
CGACATGTCCCGCTTCTTTCATTACTCCGTTAGCAACTGTTTTGCTATATACAATTACCTTTTAAGAGGAGGAAT,,cleaved RNA product abundance [3]: 1.14
CGACATGTCCCGCTTCTTTCATTAATCGGTTAGCAACTGTTTTGCTATAAACATTTACCTTTTAAGAGGAGGAAT,,cleaved RNA product abundance [3]: 0.876
ACAGACGAAGGAGCCGCGAAGAAGTTAATAAGGGATGAATAATCCCTCAATATAAATATCTCTCACTTATTTAAA,0.31,
CGACATGTCCCGCTTCTTTCATTAATTCGTTAGCAACTGTTTTGCTATATACATTTACCTTTTAAGAGGAGGAAT,,cleaved RNA product abundance [3]: 1.11
ACAGACGAAGGAGCCGCAAAGAAGTTACTAAGGGATGAATAATCCCTCGATATAAATATCTCTCACTTATTTAAA,0.227,
ACAGACGAAGGAGCCGCAAAGAGGTTATTAAGCGATGAATAATCCCTCAATATAAATATCTCTCACTTATTTAAA,0.0624,
CGACATGTCCCGCTTCTTTCATTAACCCGTTACTCACTGTTTTGGAATATACATTTACCTTTTAAGAGGAGGAAT,,cleaved RNA product abundance [3]: 0.147
ACAGACGAAGGAGCCGCAAAGAAGAAATTAAGGGATGAATAATTCCTCAATATAAATATCTCTCACTTATTTAAA,0.129,
ACAGACGAAGGAGCCGCAAAGAAGTTATTATGGAATGAATAATCCCTCAATATAAATATCTCTCACTTATTTAAA,0.105,
ACAGACGAAGGAGCCGCAAAGAAGTTATCAAGGGATTAATAATCCCTCATTATAAATATCTCTCACTTATTTAAA,0.314,
ACAGACGAAGGAGCCGCAAAGAAGTTATTAAGGGATGAATAATGCCCCAATATAAATATCTCTCACTTATTTAAA,0.134,
ACAGACGAAGGAGCCGCAAAGAAGTTATTAAGGAATGAATAATCCTTCAATATAAATATCTCTCACTTATTTAAA,0.265,cleaved RNA product abundance [1]: 0.148
ACAGACGAAGGAGCCGCAAAGAAGTTATTAAGGGACGAATAATCCTTCAATATAAATATCTCTCACTTATTTAAA,0.217,cleaved RNA product abundance [1]: 0.146

Sequence,cleaved RNA product abundance [2],other results
ACAGACGAAGGAGCCGCAACGAAGTTATTAAGGTATGAATAATCCCTCAATATAAATATCTCTCACTTATTTAAA,0.0862,
CGACATGTCCCGCTTCTTTCATTAATCAGTTAGCAACTGTTTTGTTATATACATTTACCTTTTAAGAGGAGGAAT,,cleaved RNA product abundance [3]: 0.523
ACAGACGAAGGAGCCGCAAAGTAGTTATTAAGGGTTGAATAATCCCTCAATATAAATATCTCTCACTTATTTAAA,0.364,
ACAGACGAAGGAGCCGCAAAGAAATTATTAAGGGATGAATAATCCATCAAGATAAATATCTCTCACTTATTTAAA,0.118,
ACAGACGAAGGAGCCGCAAAGAAGTTATTAAGGGATGAATAATCCCTCAATATAAACATTTCTCACTTATTTAAA,,cleaved RNA product abundance [1]: 0.752
ACAGACGAAGGAGCCGCAAAGAAGTTATTAAGAGATGAATCATCCCTCAATATAAATATCTCTCACTTATTTAAA,0.139,
ACAGACGAAGGAGCCGCAACGAAGTTATTAAGGAATAAATAATCCCTCAATATAAATATCTCTCACTTATTTAAA,0.0859,
CGACATGTCCCGCTTCTTTCATTACTCCGTTACCAACTGTTTTGCTATATACATTTACCTTTTAAGAGGAGGAAT,,cleaved RNA product abundance [3]: 0.176
ACAGACGAAGGAGCCGCAAAGAAGTTATTAATGGATGAATAATCCCTCAATATAGATATCTCTCACTTATTTAAA,0.215,
ACAGACGAAGGAGCCGCAAAGAAGTTATGAAGGGATGAATAATCCCTCAATATTAATATCTCTCACTTATTTAAA,0.125,
ACAGACGAAGGAGCCGCGAAGAAGTTATTAAGGGATGAATAATCACTCAATATAAATATCTCTCACTTATTTAAA,0.122,
ACAGACGAAGGAGCCGCAAAGAAGTTATTAAGGGAAGAATACTCCCTCAATATAAATATCTCTCACTTATTTAAA,1.01,cleaved RNA product abundance [1]: 0.632
ACAGACGAAGGAGCCGCAAAGAAGTTATCAAGGGATGAATAATCACTCAATATAAATATCTCTCACTTATTTAAA,0.139,cleaved RNA product abundance [1]: 0.123
CGACATGTCCCGCTTCTTTCATTACTCCGTTAGCAACTGTTTTTCTATTTACATTTACCTTTTAAGAGGAGGAAT,,cleaved RNA product abundance [3]: 0.151
CGACATGTCCCGCTTCTTTCATTAATCCGTTAGCATCTGATTTGCTATATACATTTACCTTTTAAGAGGAGGAAT,,cleaved RNA product abundance [3]: 1.34
ACAGACGAAGGAGCCGCAAAGAAGTTATTAAAGGATTAATAATCCCTCAATATAAATATCTCTCACTTATTTAAA,0.205,cleaved RNA product abundance [1]: 0.154
ACAGACGAAGGAGCCGCAAAGAAGGTATTAAGGCATGAATAATCCCTCAATATAAATATCTCTCACTTATTTAAA,0.101,
ACAGACGAAGGAGCCGCAAAGAAGTTATTAAGCGATGAATAATCCCACAATATAAATATCTCTCACTTATTTAAA,0.0785,
ACAGACGAAGGAGCCGCAAAGAAGTTATTAAGGGATGAATAATCCCTCAATACAAATATCTCTCACTTATTTAAA,0.0683,cleaved RNA product abundance [1]: 0.117; cleaved RNA product abundance [4]: 0.23
ACAGACGAAGGAGCCGCAAAAAAGTTATTAAGGGATTAATAATCCCTCAATATAAATATCTCTCACTTATTTAAA,0.881,cleaved RNA product abundance [1]: 1.51
